In patent US20260209386A1 (MYTHIC THERAPEUTICS, published 2026):

Biological target: T1, Human PTK7/CCK4 Protein, His Tag, Acro Biosystems PT7-H52H3 (human, UniProt Q13308 31-704)
T1 construct: bought protein; also called Human PTK7 Protein, His Tag, Acro Biosystems; not shown: His tag
T1 sequence: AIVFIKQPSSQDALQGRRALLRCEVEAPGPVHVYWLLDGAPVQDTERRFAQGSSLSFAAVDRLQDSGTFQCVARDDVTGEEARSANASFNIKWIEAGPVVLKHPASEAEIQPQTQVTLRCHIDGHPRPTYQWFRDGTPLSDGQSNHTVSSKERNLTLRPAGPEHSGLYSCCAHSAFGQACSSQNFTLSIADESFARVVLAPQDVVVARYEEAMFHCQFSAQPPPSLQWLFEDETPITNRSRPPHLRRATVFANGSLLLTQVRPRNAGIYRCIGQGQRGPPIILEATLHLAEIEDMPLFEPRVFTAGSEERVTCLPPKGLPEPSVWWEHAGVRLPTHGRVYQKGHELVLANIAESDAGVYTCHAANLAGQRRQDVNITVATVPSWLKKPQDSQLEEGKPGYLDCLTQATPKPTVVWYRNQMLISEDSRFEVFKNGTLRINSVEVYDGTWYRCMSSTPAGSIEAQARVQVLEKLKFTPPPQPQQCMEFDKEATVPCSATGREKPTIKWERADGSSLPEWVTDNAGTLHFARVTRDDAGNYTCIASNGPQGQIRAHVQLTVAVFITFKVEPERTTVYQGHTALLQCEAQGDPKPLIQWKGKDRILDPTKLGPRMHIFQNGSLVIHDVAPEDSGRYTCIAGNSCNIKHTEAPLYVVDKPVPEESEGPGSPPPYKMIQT
Assay: BLI, antibody on anti-human Fc sensor, 50 nM PTK7

B1: MYT11093 (antibody, V domains shown)
VH: EVQLVESGGGLVQPGGSLRLSCTASGLSLSSYWMSWVRQAPGKGLEWVGVISAGGNTYYANWAKGRFTISRDTSKNTVYLQMNSLRAEDTAVYFCARGDDGYTNAAYVSNLWGQGTLVTVSS
VL: EIVMTQSPSTLSASVGDRVIITCQASQSISSWLSWYQQKPGKAPKLLIYKASTLASGVPSRFSGSGSGAEFTLTISSLQPDDFATYYCQSYHDSTTIAFGQGTKLTVL
notes: IgG
- binding result: binds

B2: MYT10993 (antibody, V domains shown)
VH: EVQLVESGGGLVQPGGSLRLSCTASGFSLSSYAMGWVRQAPGKGLEWVGFINAGGNTYYANWAKGRFTISRDTSKNTVYLQMNSLRAEDTAVYFCARRYSRASGWYDLWGQGTLVTVSS
VL: EIVMTQSPSTLSASVGDRVIITCQHSQSISSYLAWYQQKPGKAPKLLIYAASTLASGVPSRFSGSGSGAEFTLTISSLQPDDFATYYCQSYSYSSGIDYGDVFGQGTKLTVL
notes: IgG
- binding result: binds

B3: MYT10999 (antibody, V domains shown)
VH: EVQLVESGGGLVQPGGSLRLSCTASGFSLSSYAMGWVRQAPGKGLEWVGFINAGGNTYYANWAKGRFTISRDTSKNTVYLQMNSLRAEDTAVYFCARRYSRASGWYDLWGQGTLVTVSS
VL: EIVMTQSPSTLSASVGDRVIITCQASQSISHYLAWYQQKPGKAPKLLIYAASTLASGVPSRFSGSGSGAEFTLTISSLQPDDFATYYCQSYSYSSGIDYGDVFGQGTKLTVL
notes: IgG
- binding result: binds

B4: MYT10998 (antibody, V domains shown)
VH: EVQLVESGGGLVQPGGSLRLSCTASGFSLSSYAMGWVRQAPGKGLEWVGFINAGGNTYYANWAKGRFTISRDTSKNTVYLQMNSLRAEDTAVYFCARRYSRASGWYDLWGQGTLVTVSS
VL: EIVMTQSPSTLSASVGDRVIITCQASQSIHSYLAWYQQKPGKAPKLLIYAASTLASGVPSRFSGSGSGAEFTLTISSLQPDDFATYYCQSYSYSSGIDYGDVFGQGTKLTVL
notes: IgG
- binding result: binds

B5: MYT10997 (antibody, V domains shown)
VH: EVQLVESGGGLVQPGGSLRLSCTASGFSLSSYAMGWVRQAPGKGLEWVGFINAGGNTYYANWAKGRFTISRDTSKNTVYLQMNSLRAEDTAVYFCARRYSRASGWYDLWGQGTLVTVSS
VL: EIVMTQSPSTLSASVGDRVIITCQASQSHSSYLAWYQQKPGKAPKLLIYAASTLASGVPSRFSGSGSGAEFTLTISSLQPDDFATYYCQSYSYSSGIDYGDVFGQGTKLTVL
notes: IgG
- binding result: binds

B6: MYT11021 (antibody, V domains shown)
VH: EVQLVESGGGLVQPGGSLRLSCTASGFSLSSYAMGWVRQAPGKGLEWVGFINAGGNTYYANWAKGRFTISRDTSKNTVYLQMNSLRAEDTAVYFCARRYSRASGWYDLWGQGTLVTVSS
VL: EIVMTQSPSTLSASVGDRVIITCQASQSISSYLAWYQQKPGKAPKLLIYAASTLASGVPSRFSGSGSGAEFTLTISSLQPDDFATYYCQSYSYSSGIDYHDVFGQGTKLTVL
notes: IgG
- binding result: binds

B7: MYT11023 (antibody, V domains shown)
VH: EVQLVESGGGLVQPGGSLRLSCTASGFSLSSYAMGWVRQAPGKGLEWVGFINAGGNTYYANWAKGRFTISRDTSKNTVYLQMNSLRAEDTAVYFCARRYSRASGWYDLWGQGTLVTVSS
VL: EIVMTQSPSTLSASVGDRVIITCQASQSISSYLAWYQQKPGKAPKLLIYAASTLASGVPSRFSGSGSGAEFTLTISSLQPDDFATYYCQSYSYSSGIDYGDHFGQGTKLTVL
notes: IgG
- binding result: binds

B8: MYT11003 (antibody, V domains shown)
VH: EVQLVESGGGLVQPGGSLRLSCTASGFSLSSYAMGWVRQAPGKGLEWVGFINAGGNTYYANWAKGRFTISRDTSKNTVYLQMNSLRAEDTAVYFCARRYSRASGWYDLWGQGTLVTVSS
VL: EIVMTQSPSTLSASVGDRVIITCQASQSISSYLAWYQQKPGKAPKLLIYHASTLASGVPSRFSGSGSGAEFTLTISSLQPDDFATYYCQSYSYSSGIDYGDVFGQGTKLTVL
notes: IgG
- binding result: binds

B9: MYT11004 (antibody, V domains shown)
VH: EVQLVESGGGLVQPGGSLRLSCTASGFSLSSYAMGWVRQAPGKGLEWVGFINAGGNTYYANWAKGRFTISRDTSKNTVYLQMNSLRAEDTAVYFCARRYSRASGWYDLWGQGTLVTVSS
VL: EIVMTQSPSTLSASVGDRVIITCQASQSISSYLAWYQQKPGKAPKLLIYAHSTLASGVPSRFSGSGSGAEFTLTISSLQPDDFATYYCQSYSYSSGIDYGDVFGQGTKLTVL
notes: IgG
- binding result: binds

B10: MYT11000 (antibody, V domains shown)
VH: EVQLVESGGGLVQPGGSLRLSCTASGFSLSSYAMGWVRQAPGKGLEWVGFINAGGNTYYANWAKGRFTISRDTSKNTVYLQMNSLRAEDTAVYFCARRYSRASGWYDLWGQGTLVTVSS
VL: EIVMTQSPSTLSASVGDRVIITCQASQSISSHLAWYQQKPGKAPKLLIYAASTLASGVPSRFSGSGSGAEFTLTISSLQPDDFATYYCQSYSYSSGIDYGDVFGQGTKLTVL
notes: IgG
- binding result: binds

B11: MYT11010 (antibody, V domains shown)
VH: EVQLVESGGGLVQPGGSLRLSCTASGFSLSSYAMGWVRQAPGKGLEWVGFINAGGNTYYANWAKGRFTISRDTSKNTVYLQMNSLRAEDTAVYFCARRYSRASGWYDLWGQGTLVTVSS
VL: EIVMTQSPSTLSASVGDRVIITCQASQSISSYLAWYQQKPGKAPKLLIYAASTLASGVPSRFSGSGSGAEFTLTISSLQPDDFATYYCHSYSYSSGIDYGDVFGQGTKLTVL
notes: IgG
- binding result: binds

B12: MYT11014 (antibody, V domains shown)
VH: EVQLVESGGGLVQPGGSLRLSCTASGFSLSSYAMGWVRQAPGKGLEWVGFINAGGNTYYANWAKGRFTISRDTSKNTVYLQMNSLRAEDTAVYFCARRYSRASGWYDLWGQGTLVTVSS
VL: EIVMTQSPSTLSASVGDRVIITCQASQSISSYLAWYQQKPGKAPKLLIYAASTLASGVPSRFSGSGSGAEFTLTISSLQPDDFATYYCQSYSHSSGIDYGDVFGQGTKLTVL
notes: IgG
- binding result: binds

B13: MYT11013 (antibody, V domains shown)
VH: EVQLVESGGGLVQPGGSLRLSCTASGFSLSSYAMGWVRQAPGKGLEWVGFINAGGNTYYANWAKGRFTISRDTSKNTVYLQMNSLRAEDTAVYFCARRYSRASGWYDLWGQGTLVTVSS
VL: EIVMTQSPSTLSASVGDRVIITCQASQSISSYLAWYQQKPGKAPKLLIYAASTLASGVPSRFSGSGSGAEFTLTISSLQPDDFATYYCQSYHYSSGIDYGDVFGQGTKLTVL
notes: IgG
- binding result: binds

B14: MYT11018 (antibody, V domains shown)
VH: EVQLVESGGGLVQPGGSLRLSCTASGFSLSSYAMGWVRQAPGKGLEWVGFINAGGNTYYANWAKGRFTISRDTSKNTVYLQMNSLRAEDTAVYFCARRYSRASGWYDLWGQGTLVTVSS
VL: EIVMTQSPSTLSASVGDRVIITCQASQSISSYLAWYQQKPGKAPKLLIYAASTLASGVPSRFSGSGSGAEFTLTISSLQPDDFATYYCQSYSYSSGHDYGDVFGQGTKLTVL
notes: IgG
- binding result: binds

B15: MYT11012 (antibody, V domains shown)
VH: EVQLVESGGGLVQPGGSLRLSCTASGFSLSSYAMGWVRQAPGKGLEWVGFINAGGNTYYANWAKGRFTISRDTSKNTVYLQMNSLRAEDTAVYFCARRYSRASGWYDLWGQGTLVTVSS
VL: EIVMTQSPSTLSASVGDRVIITCQASQSISSYLAWYQQKPGKAPKLLIYAASTLASGVPSRFSGSGSGAEFTLTISSLQPDDFATYYCQSHSYSSGIDYGDVFGQGTKLTVL
notes: IgG
- binding result: binds

B16: MYT11006 (antibody, V domains shown)
VH: EVQLVESGGGLVQPGGSLRLSCTASGFSLSSYAMGWVRQAPGKGLEWVGFINAGGNTYYANWAKGRFTISRDTSKNTVYLQMNSLRAEDTAVYFCARRYSRASGWYDLWGQGTLVTVSS
VL: EIVMTQSPSTLSASVGDRVIITCQASQSISSYLAWYQQKPGKAPKLLIYAASHLASGVPSRFSGSGSGAEFTLTISSLQPDDFATYYCQSYSYSSGIDYGDVFGQGTKLTVL
notes: IgG
- binding result: binds

B17: MYT11001 (antibody, V domains shown)
VH: EVQLVESGGGLVQPGGSLRLSCTASGFSLSSYAMGWVRQAPGKGLEWVGFINAGGNTYYANWAKGRFTISRDTSKNTVYLQMNSLRAEDTAVYFCARRYSRASGWYDLWGQGTLVTVSS
VL: EIVMTQSPSTLSASVGDRVIITCQASQSISSYHAWYQQKPGKAPKLLIYAASTLASGVPSRFSGSGSGAEFTLTISSLQPDDFATYYCQSYSYSSGIDYGDVFGQGTKLTVL
notes: IgG
- binding result: binds

B18: MYT11103 (antibody, V domains shown)
VH: EVQLVESGGGLVQPGGSLRLSCTASGHSLSTYAMSWVRQAPGKGLEWVGMIYINDNTYYASWAKGRFTISRDTSKNTVYLQMNSLRAEDTAVYFCARDIGISYYIGVSLWGQGTLVTVSS
VL: EIVMTQSPSTLSASVGDRVIITCQASQSIGTRLSWYQQKPGKAPKLLIYGASKLATGVPSRFSGSGSGAEFTLTISSLQPDDFATYYCLGEYSYTTTDGIAFGQGTKLTVL
notes: IgG
- binding result: binds

B19: MYT11105 (antibody, V domains shown)
VH: EVQLVESGGGLVQPGGSLRLSCTASGFSHSTYAMSWVRQAPGKGLEWVGMIYINDNTYYASWAKGRFTISRDTSKNTVYLQMNSLRAEDTAVYFCARDIGISYYIGVSLWGQGTLVTVSS
VL: EIVMTQSPSTLSASVGDRVIITCQASQSIGTRLSWYQQKPGKAPKLLIYGASKLATGVPSRFSGSGSGAEFTLTISSLQPDDFATYYCLGEYSYTTTDGIAFGQGTKLTVL
notes: IgG
- binding result: binds
